Experimental findings from patent US20030203447A1 (XOMA TECHNOLOGY, published 2003) are described below.

Assay [1] deals with T1, Ep-CAM on the surface of HT-29 human colorectal carcinoma cells (human, UniProt P16422 24-314).
T1 construct: also called Epithelial Cell Adhesion Molecule; Ep-CAM-expressing HT-29 cells
T1 sequence: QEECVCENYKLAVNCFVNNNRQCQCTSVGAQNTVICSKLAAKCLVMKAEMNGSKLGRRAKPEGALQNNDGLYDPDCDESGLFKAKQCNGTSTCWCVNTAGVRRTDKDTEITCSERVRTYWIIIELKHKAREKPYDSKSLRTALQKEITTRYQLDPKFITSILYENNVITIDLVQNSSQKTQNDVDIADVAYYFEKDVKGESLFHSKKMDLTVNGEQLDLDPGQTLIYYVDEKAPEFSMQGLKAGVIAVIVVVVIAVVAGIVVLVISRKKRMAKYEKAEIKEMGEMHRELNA
Kind of assay: competition with 125I-labelled chimeric ING-1 on HT-29 cells. The source says:
(§1) Vectors constructed according to Example 6 encoding human engineered ING-1 light and heavy chain genes, for example, pING1937 (low risk human engineered ING-1) and pING1944 (low plus moderate risk human engineered ING-1) were linearized by XbaI and used to transfect serum-free adapted CHO—K1 followed by selection of G418-resistant transfectants. Protein was purified from shake flask culture supernatants by passage over a protein A column. To evaluate the binding activity of the produced immunoglobulin polypeptides, competition binding assays with the human carcinoma cell line HT-29 were performed. This colorectal carcinoma cell line expresses a molecule known as Ep-CAM on its surface. Ep-CAM is recognized by immunoglobulin polypeptides having the antigen binding specificity of the mouse-human chimeric ING-1 antibody produced by cell line HB 9812 as deposited with the ATCC.
(§2) HTG29 cells were grown to confluency (˜2×10⁵ cells/well) in 96 well plates. Mouse-human chimeric ING-1 was labeled with Na¹²⁵I (Iodo-gen®, Pierce). The competition conditions included in a 100 μl assay volume, 0.1 nM labeled mouse-human chimeric ING-1, 2-fold serial dilutions of unlabeled immunoglobulin polypeptides, for example, as produced by cells transfected with pING1937 and pING1944. […] Labeled cells were removed with NaOH and counted. […]

Assay [2] concerns the target T1, Ep-CAM on the surface of HT-29 human …. Kind of assay: competition with iodinated low risk ING-1 on HT-29 cells.
For assay [3] the target is unchanged. Kind of assay: competition binding on HT-29 cells.
Excerpt: as §1, §2

B1: mouse-human chimeric ING-1 (antibody, human IgG1, kappa, V domains shown)
VH: QIQLVQSGPELKKPGETVKISCKASGYTFTKYGMNWVKQAPGKGLKWMGWINTYTEEPTYGDDFKGRFAFSLETSASTANLQINNLKSEDTATYFCARFGSAVDYWGQGTSVTVSS
VL: DIVMTQAAFSNPVTLGTSGSISCRSSKSLLHSNGITYLYWYLQKPGQSPQLLIYQMSNLASGVPDRFSSSGSGTDFTLRISRVEAEDVGVYYCAQNLELPRTFGGGTKLEMKR
notes: Variable regions of mouse antibody Br-1 with human constant regions; also called mouse-human chimeric ING-1 antibody produced by cell line HB 9812
Turning to B1, the binding result in assay [1] is “binds”.

B2: human engineered (low risk) ING-1 (antibody, human IgG1, kappa)
VL: DIVMTQSALSNPVTLGESGSISCRSSKSLLHSNGITYLYWYLQKPGQSPQLLIYQMSNRASGVPDRFSSSGSGTDFTLKISRVEAEDVGVYYCAQNLELPRTFGQGTKLEMKRTVAAPSVFIFPPSDEQLKSGTASVVCLLNNFYPREAKVQWKVDNALQSGNSQESVTEQDSKDSTYSLSSTLTLSKADYEKHKVYACEVTHQGLSSPVTKSFNRGEC
VH: not shown
notes: It carries 6 low risk changes in VL and 13 low risk changes in VH; also called ING-1 (heMab); low risk human engineered ING-1
As for B2, the binding result in assay [1] is “binds”.

B3: modified ING-1 with low risk light chain and low plus moderate risk heavy chain (antibody, human IgG1, kappa)
VL: DIVMTQSALSNPVTLGESGSISCRSSKSLLHSNGITYLYWYLQKPGQSPQLLIYQMSNRASGVPDRFSSSGSGTDFTLKISRVEAEDVGVYYCAQNLELPRTFGQGTKLEMKRTVAAPSVFIFPPSDEQLKSGTASVVCLLNNFYPREAKVQWKVDNALQSGNSQESVTEQDSKDSTYSLSSTLTLSKADYEKHKVYACEVTHQGLSSPVTKSFNRGEC
VH: not shown
With B3, the binding result in assay [2] is “binds”.

B4: human engineered (low plus moderate risk) ING-1 (antibody, human IgG1, kappa)
VL: DIVMTQSPLSLPVTPGEPGSISCRSSKSLLHSNGITYLYWYLQKPGQSPQLLIYQMSNRASGVPDRFSSSGSGTDFTLKISRVEAEDVGVYYCAQNLELPRTFGQGTKLEMKRTVAAPSVFIFPPSDEQLKSGTASVVCLLNNFYPREAKVQWKVDNALQSGNSQESVTEQDSKDSTYSLSSTLTLSKADYEKHKVYACEVTHQGLSSPVTKSFNRGEC
VH: not shown
notes: Whole IgG built like pING1937 (human kappa and gamma-1 constant regions); It carries 10 low plus moderate risk changes in VL and 20 in VH; also called product of pING1944
Consider B4, for which the binding result in assay [3] was “binds”.

B5: modified ING-1 with low plus moderate risk light chain and low risk heavy chain (antibody, human IgG1, kappa)
VL: DIVMTQSPLSLPVTPGEPGSISCRSSKSLLHSNGITYLYWYLQKPGQSPQLLIYQMSNRASGVPDRFSSSGSGTDFTLKISRVEAEDVGVYYCAQNLELPRTFGQGTKLEMKRTVAAPSVFIFPPSDEQLKSGTASVVCLLNNFYPREAKVQWKVDNALQSGNSQESVTEQDSKDSTYSLSSTLTLSKADYEKHKVYACEVTHQGLSSPVTKSFNRGEC
VH: not shown
As for B5, the binding result in assay [2] was “binds”.
